Source: patent US20260085338

Target: T7 RNA polymerase, P00573
Sequence (P00573 whole entry): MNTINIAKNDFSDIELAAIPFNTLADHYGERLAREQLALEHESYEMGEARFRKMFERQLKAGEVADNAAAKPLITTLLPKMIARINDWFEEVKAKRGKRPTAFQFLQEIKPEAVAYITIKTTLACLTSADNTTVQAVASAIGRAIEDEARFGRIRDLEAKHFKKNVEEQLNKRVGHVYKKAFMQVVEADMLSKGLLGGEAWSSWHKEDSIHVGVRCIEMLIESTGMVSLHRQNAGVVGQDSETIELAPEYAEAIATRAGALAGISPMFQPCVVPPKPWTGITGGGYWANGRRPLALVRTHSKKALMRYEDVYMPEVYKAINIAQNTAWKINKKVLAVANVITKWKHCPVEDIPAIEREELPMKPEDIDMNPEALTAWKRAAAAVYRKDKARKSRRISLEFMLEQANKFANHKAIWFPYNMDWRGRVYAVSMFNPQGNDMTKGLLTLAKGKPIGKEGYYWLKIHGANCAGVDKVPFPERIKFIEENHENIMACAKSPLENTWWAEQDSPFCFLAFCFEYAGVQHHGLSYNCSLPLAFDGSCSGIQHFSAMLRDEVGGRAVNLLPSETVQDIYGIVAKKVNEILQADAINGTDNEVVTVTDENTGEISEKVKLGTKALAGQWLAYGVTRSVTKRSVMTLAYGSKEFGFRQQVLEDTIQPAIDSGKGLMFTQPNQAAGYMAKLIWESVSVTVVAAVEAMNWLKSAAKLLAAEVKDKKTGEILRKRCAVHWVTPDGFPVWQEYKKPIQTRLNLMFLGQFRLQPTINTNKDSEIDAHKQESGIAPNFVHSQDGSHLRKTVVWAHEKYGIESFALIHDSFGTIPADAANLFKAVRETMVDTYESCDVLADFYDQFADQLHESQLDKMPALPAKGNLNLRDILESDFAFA

B1: T7 lysozyme (protein)
chain: MARVQFKQRESTDAIFVHCSATKPSQNVGVREIRQWHKEQGWLDVGYHFIIKRDGTVEAGRDEMAVGSHAKGYNHNSIGVCLVGGIDDKGKFDANFTPAQMQSLRSLLVTLLAKYEGAVLRAHHEVAPKACPSFDLKRWWEKNELVTSDRG
reduction of msfGFP output upon lysozyme induction (P. putida, 4 mM Rha): T7 (-79%)
